Measured values published in paper doi:10.1101/2022.01.16.476540 (bioRxiv, 2022).

B3: Sec9 (a.a. 416-651) (domain or fragment)
chain: ARQQQEEDEAVDEIKQEIKFTKQSSVASTRNTLKMAQDAERAGMNTLGMLGHQSEQLNNVEGNLDLMKVQNKVADEKVAELKKLNRSILAVHVSNPFNSKRRRREREEQLKNRKIEEKLMREQTSQQLSQSTQRIEGAMNANNNISEVRERYQRKNVLEKAKRYQFENDEEDDEMELEIDRNLDQIQQVSNRLKKMALTTGKELDSQQKRLNNIEESTDDLDINLHMNTNRLAGIR

How the values were obtained:
[1] = molecular target: T1, binary Q-SNARE complex (full-length Sso1: Sec9) on vesicle membranes (yeast (S. cerevisiae), UniProt P32867;P40357); assay: single-vesicle docking
T1 sequence 1: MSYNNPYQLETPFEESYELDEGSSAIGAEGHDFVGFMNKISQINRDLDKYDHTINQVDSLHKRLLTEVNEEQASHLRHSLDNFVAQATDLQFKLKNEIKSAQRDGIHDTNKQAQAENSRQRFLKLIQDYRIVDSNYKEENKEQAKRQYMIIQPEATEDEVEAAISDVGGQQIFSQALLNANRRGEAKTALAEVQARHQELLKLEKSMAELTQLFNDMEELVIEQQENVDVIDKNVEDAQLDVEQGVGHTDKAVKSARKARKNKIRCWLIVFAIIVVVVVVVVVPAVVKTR
T1 sequence 2: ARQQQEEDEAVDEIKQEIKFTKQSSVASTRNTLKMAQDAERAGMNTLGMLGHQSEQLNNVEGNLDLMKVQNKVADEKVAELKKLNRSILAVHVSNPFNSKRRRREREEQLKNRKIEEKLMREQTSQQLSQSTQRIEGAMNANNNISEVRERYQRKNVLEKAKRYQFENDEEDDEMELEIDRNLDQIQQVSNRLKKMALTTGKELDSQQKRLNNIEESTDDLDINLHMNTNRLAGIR

[2] = molecular target: T2, binary Q-SNARE complex (Habc-truncated Sso1: Sec9) on vesicle membranes (yeast (S. cerevisiae), UniProt P32867;P40357); assay: single-vesicle docking
T2 sequence 1: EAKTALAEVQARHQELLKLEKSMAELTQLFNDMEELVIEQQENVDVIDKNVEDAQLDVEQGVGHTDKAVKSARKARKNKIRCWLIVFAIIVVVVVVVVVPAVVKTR
T2 sequence 2: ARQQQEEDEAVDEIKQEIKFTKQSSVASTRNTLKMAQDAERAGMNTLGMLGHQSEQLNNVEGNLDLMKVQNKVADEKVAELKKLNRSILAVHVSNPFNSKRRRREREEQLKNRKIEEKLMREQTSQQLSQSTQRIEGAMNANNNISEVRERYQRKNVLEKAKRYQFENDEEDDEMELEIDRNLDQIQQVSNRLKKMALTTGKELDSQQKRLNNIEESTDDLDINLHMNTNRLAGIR

[3] = molecular target: T3, Full length Sso1 WT (a.a. 1-290) (yeast (S. cerevisiae), UniProt P32867 1-290); assay: single-molecule pull-down
T3 sequence: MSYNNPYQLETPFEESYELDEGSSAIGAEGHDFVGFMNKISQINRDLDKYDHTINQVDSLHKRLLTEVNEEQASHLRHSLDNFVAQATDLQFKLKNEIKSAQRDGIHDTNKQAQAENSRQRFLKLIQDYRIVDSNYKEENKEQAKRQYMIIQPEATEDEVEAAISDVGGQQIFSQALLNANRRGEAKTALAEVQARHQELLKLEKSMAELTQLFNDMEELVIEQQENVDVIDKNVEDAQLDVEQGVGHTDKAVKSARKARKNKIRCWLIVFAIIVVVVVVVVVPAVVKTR

[4] = molecular target: T3, Full length Sso1 WT (a.a. 1-290); assay: single-vesicle docking
[5] = molecular target: B3; assay: single-vesicle docking

B1: Snc2 WT (1-115) (natural protein)
chain: MSSSVPYDPYVPPEESNSGANPNSQNKTAALRQEIDDTVGIMRDNINKVAERGERLTSIEDKADNLAISAQGFKRGANRVRKQMWWKDLKMRMCLFLVVIILLVVIIVPIVVHFS
- binding result [1]: binds
- binding result [2]: binds

B2: Cy3-labeled Sec9 (A442C) (domain or fragment)
chain: ARQQQEEDEAVDEIKQEIKFTKQSSVCSTRNTLKMAQDAERAGMNTLGMLGHQSEQLNNVEGNLDLMKVQNKVADEKVAELKKLNRSILAVHVSNPFNSKRRRREREEQLKNRKIEEKLMREQTSQQLSQSTQRIEGAMNANNNISEVRERYQRKNVLEKAKRYQFENDEEDDEMELEIDRNLDQIQQVSNRLKKMALTTGKELDSQQKRLNNIEESTDDLDINLHMNTNRLAGIR
- binding result [3]: binds

Binder: B3
- binding result [4]: binds

B4: Habc domain-truncated Sso1 (a.a. 185-290) (domain or fragment)
chain: EAKTALAEVQARHQELLKLEKSMAELTQLFNDMEELVIEQQENVDVIDKNVEDAQLDVEQGVGHTDKAVKSARKARKNKIRCWLIVFAIIVVVVVVVVVPAVVKTR
- binding result [5]: binds
